Test: yeast display, Sf9 membrane polyspecificity reagent, FACS + sequencing; frameworks hold sequencing errors
How it was run: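 Genes from sorted yeast were amplified by colony PCR, read by MiSeq 2 × 250 sequencing and filtered on CDR length. These cells carried a synthetic nanobody library in Saccharomyces cerevisiae BJ5465 and were sorted by FACS into low and high (top ~1%) gates on anti-HA and streptavidin fluorescence. Polyreactivity is labelled according to the gate of origin.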

Row | Sequence | polyreactivity (PSR sort gate)
1 | QVQLVESGGGLVQAGGSLRLSCAASGGTFFLYAMGWYRQAPGTERELVADISSGDSTNYADSVKGRFTISRDNAKNTVYLQMNSLKPEDTAVYYCAADGKLEYVNGYNLYYWGQGTQVTVSS | low polyreactivity
2 | QVQLVESGGGLVQAGGSLRLSCAASGSTFYLYAMGWYRQAPGKERELVAAITRGGTTNYADSVKGRFTISRDNAKNTVYLQMNSLKPEDTAVYYCAKEVTTLLSLYEIVDRDYWGQGTQVTVSS | low polyreactivity
3 | QVQLVESGGGLVQAGGSLRLSCAASGFIFRYYAMGWYRQAPGKERELVARITPRGGRTYYADSVKGRFTISRDNAKNTVYLQMNSLKPEDTAVYYCAAVYPVLDEFGYWGQGTQVTVSS | high polyreactivity
4 | QVQLVESGGGLVQAGGSLRLSCAASGFTFPKYAMGWYRQAPGKERELVAAITWSGGSTRYADSVKGRFTISRDNAKNTVYLQMNSLKPEDTAVYYCAADRRSGYSRYKYGRGDYWGQGTQVTVSS | high polyreactivity
5 | QVQLVESGGGLVQAGGSLRLSCAASGGTGARNAMGWYRQAPGKERELVATITRRAGTTYYADSVKGRFTISRDNAKNTVYLQMNSLKPEDTAVYYCARVATWGYYPYLIPEVGYDYWGQGTQVTVSS | high polyreactivity
6 | QVQLVESGGGLVQAGGSLRLSCAASGIIFSVNAMGWYRQAPGTERELVAAISSSGGDTYYADSVKGRFTISRDNAKNTVYLQMNSLKPEDTAVYYCAASVEQPGLAYDYWGQGTQVTVSS | low polyreactivity
7 | QVQLVESGRGLVQAGGSLRLSCAASGRIFKGYAMGWYRQAPGKERELVAAITTSGGGTYSADSVKGRFTFSRDNAKNTVYLQMNSLKPEDPAVYYCAKTLGSQNYDFDYWGQGTQVTVSS | low polyreactivity
8 | QVQLVESGGGLVQAGGSLRLSCAASGITFGSYAMGWYRQAPGKERELVAAITWRGGTTYYADSVKARFTISRDNAKNTVYLQMNSLKPEDTAVYYCNTAWTGYPRYQYGGNYWGQGTQVTVSS | high polyreactivity
9 | QVQLVESGGGLVQAGGSLRLSCAASGSTFSSNAMGWYRQAPGKERELVAAISWSGASTYYADSVKGRFTISRDNAKNTVYLQMNSLKPEDTAVYYCATVWQAKYYGNHRFGYWGQGTQVTVSS | low polyreactivity
10 | QVQLVESVGGLVQEGGSLRLSCAASGSNFQWYAMGWYRQAPGKERELVAAIRYSGDSTYYADSVKGRFTISRDNAKNTDYLQMNSLKPEDTAVYYCAAEATTRWLLYNYWGQGTQVTVSS | high polyreactivity
11 | QVQLVESGGGIVQAGGSLRLSCAASGSTFTLYAMGWYRQAPGQERELVAAITSDDSTYYADSVKGRFTISRDNAKNTVYLQMNSLKPEDTAVYYCAADVYYGDYEMDYWGQGTQVTVSS | low polyreactivity
12 | QVQLVESGGGLVQAGGRLRLSCAASGFTCGVYDMGWYRQAPGKERALVADIDFTGGDTYYADSVKGRFTISRDNAKNTVYLQMIRLKPEDTAVYYCAARSWGVIYDYFYLGLDYWGQGTQVTVSS | low polyreactivity
13 | QVQLVESGGGLVQAGGSLRLSCAASGIIFAWYAMGWYRQAPGKERELVAAISGRGGRTYYADSVKGRFTISRDNAKNTVYLQMNSLKPEDTPVYYCNKDKSVIYDYWGQGTQVTVSS | high polyreactivity
14 | QVQLEESGGGLVQAGGSLRLSCAASVSNLYYYPMGWYRQATRKERELVASIRNGGSTYYADSVKGLFTISRDNAKNTVYLQMNSLKPEDTAVYYCNARVSRSFRARYNYWGQGSQVTVSS | high polyreactivity
15 | QVQLVESGGGLVQAGGSLRLSCAASGITFGRNTMGWYRQAPGKERELVASINKSGGSTYYADSVKGRFTISRDNAKNTVYLQMNSLKPEDTAVYYCAARTGWPRVGFLYPAHVGFDYWGQGTQVTVSS | low polyreactivity
16 | QVQLVESGGGLVQAGGSLRLSCAASGLTFTRYTMGWYRQAPGKERELVAAITSSGGSTYYADSVKGRFTISRDNAKNTVYLQMNSLKPEDTAVYYCAARYPGTRGDGYWGQGTQVTVSS | high polyreactivity
17 | QVQLVESGGGLVQAGGSLRLSCAASGIIFAANAMGWYRQAPGKERELVAAISKNGGITYYADSVKGRFTISRDNAKNTVYLQMNSLKPEDTAVYYCAAKLSRRYYYWGQGTQVTVSS | high polyreactivity
18 | QVQLVESGGGLVQAGGSLRLSCAASVSTIGTYAMGWYRQAPGKERELVAAISTGGSTYYADSVKGRFTISRANAKNTVHLQMNSLKPEDTAVYYCAALADYVRRASDYWGQGTQVTVSS | low polyreactivity
19 | QVQLVESGGGVLQAGGSLRLSCAASGRTFCFYAMGWSRQAPGKERELVASITWRGGRTYYADSVKGRFTISRDNAKNTVYLQMNSLKPEDTAVYYCAAVTFSYDGYDYWGQGTQVTVSS | low polyreactivity
20 | QVQLVESGGGLVQAGGSLRLSCAASGSIFTRNAMGWYRQAPGKERELVASISWRGGSTYYADSVKGRFTISRDNAKNTVYLQMNSLKPEDTAVYYCNRRAYRNGYGFRDGTWEYDYWGQGTQVTVSS | high polyreactivity
21 | QVHLVESGGGLVQAGGSLRLTCAASGFTFHQYAMGWYRQAPGKERELVAAISQSGDSTYYADSVKGRFTISRDNSKNTVYLQMNSLKQEYTAVYYFNADNDGVVWSDPFDFDYWGQGTQVTVSS | low polyreactivity
22 | QVQLVESGVGLVQPGGSLRLSSAASGSTSLVNAMRRYRQAPGKERELVAAITRGGNTYYADSVKGRFTISRDNAKNTVYLQMNSLKPEDTAVYYCAAEDHSELGQYDYWGQGTQVTVSS | low polyreactivity

Row | Sequence | polyreactivity (PSR sort gate)
23 | QVQLVESGGRLVQAGGSLRLSCADSGRTFYLYAMGWYRQAPGKEREFVADITFSGASTDYAASVKGRFTISRDNAKNTVYLQMNSLKPEDTAVYYCNADIAHVCWWSYPTDDYWGQGTQVTVSS | high polyreactivity
24 | QVQLVESGGGLVQAGGSLRLSCAASGFTFRTYAMGRYRQAPGTERELVAAINVSGGTYYADSVKGRFTISRDNAKNTVYLQMNSLKPEDSAVYYCTANRFRTGFDYWGQGTQVTVSS | low polyreactivity
25 | QVQLVESGGGIVQAGGSLRLSCAASGSIFSTNAMGWYRQAPWKERELVAAIDITNYADSVKGRFTISRDNAKNTVYLQMNSLKPEDTAVYYCNADTYSVVREGDYWGQGTQVTVSS | low polyreactivity
26 | QVQLVESGGGLVQAGGSLRLSCAASGRIFAGYAMGWYRQAPGKERELVARISRGDDSTYYADSVKGRFTISRDNAKNTVYLQMNSLKPEDTAFYFCAADYPDVVYLEYDYWGQGTQVTVSS | low polyreactivity
27 | QGQLEESGGGLVQAGGSLRLSCAASGRIFRYNTMGWYRQAPGKERELVADITSSDSSTYYADSVKGRFTISRDNAKNTLYLQMNSLKPEDTEVYFCAARDSGYGWRYYYWGHGTQVTVSS | low polyreactivity
28 | QGQLVESGGGLVQAGGSLRLSSAASGSTFVYAMGWYRQAPGKERVLVASISWSDSSTYYADSVKGRFTISRDNAKNTVYLQMNSQKREDTAVYYGYADQGTRDSDYWGQGTQGTVSS | low polyreactivity
29 | QVQLVESGGGLVQAGGSLRLSCAASGSIFWGNAMGWYRQAPGKERELVAAITGSGGSSYYADSVKGRFTISRDNAKNRVYLLMNSVKPEDTAVYYCADLFRTFYYWGQGTQVTVSS | high polyreactivity
30 | QVQLVESGGGLVQAGGSLRLSCAASGFTFGSYAMGWYRQAPGKEREFVAAITRSGGRTYYADSVKGRFTISRDNAKNTVYLQMNSLKPEDTAVSYCNAYRSALYTPEYDYWGQGTQVNVSS | high polyreactivity
31 | QVQLVESGGGLVQAGGSLRLSCADSGRIFRRYAMGWYRQAPGKERELVAAITTSGGSTYYADSVKGRFTISRDNAKNTVYLQMNSLKPEDTAVYYCNARSSVYGHRKGSARIPRYDYWGQGTQVTVSS | high polyreactivity
32 | QVQLVESGGGLVQAGGSLRLSCAASGSIFAYYAMGWYRQAPGKERELVAAISRRGATTYYSDSVKGRFTISRDNAKNTVYLQMNSLKPEDTAVYYCAARTPYWTSYLRYWGQGTQVTVSS | high polyreactivity
33 | QVQLVESGGGLVQAGGSLRLSCAASGFTIRSYVMGWYRQAPGKEREFVAAISYRGGGTNYADSVKGRFTISRDNAKNTVYLQMNSLKPEDTAVYYCNARSGSSKSGYYYWGQGTQVTVSS | high polyreactivity
34 | QVQLVESGGGLVQAGGSLRLSCADSGRTLGVYAMRWYRQAPGKERELVASISFSGGRTYYADSVKGRFTISRDNAKNTVYLQMNSLKPEDTAVYYCAAGGRVRYQTKYRYGYDYWGQGTQVTVSS | low polyreactivity
35 | QVQLVESGGGLVQAGGSLRLSCAASGSTFPGYAMGWYRQAPGKERELVAAISTSGGRTYYADSVKGRFTISRDNAKNTVYLQMNSLKPEDTAVYYCAADASTWYTEEYWGQGTQVTVSS | low polyreactivity
36 | QVQLVESGGGLVQAGGILRLSCAASGRIFKTYAMGWYRQAPGKERELVAAITASGGRTYYADSVKGRFTISRDNAKNTVYLQMNSLKPEDTAVYYCAADSGNEYDYWGQGTQVTVSS | low polyreactivity
37 | QVQLVESGGGLVQAGGSLRLSCAASGFIFSYYAMGWYRQAPGKERELVAAINWSGGSTYYADSVKGRFTISRDNAKNTVYLQMNSLKPEDTAVYYCAAYSSWHPYDYWGQGTQVTVSS | high polyreactivity
38 | QGQLVESGGGLVQAGGSLRLSCAAYGSTFYLYPMGRYRQAPGKERELVASISLSGRSTYYADSVKGRFTISRDNAKNTVYLQMNRLKQEDTAVYYCAARRFAYYFQYLGGGYWGQGTQVTVSS | high polyreactivity
39 | QVQLVESGGGLVQAGGSLRLSCAASGSTVYRYTMGWYRQAPGKERELVAAISRSGGRTYYADSVKGRFTISRDNAKNTVYLQMNSMKPEDTAVDYCNAEIAASAVQAQEGEFWGQGTQVTVSS | high polyreactivity
40 | QVQHVESGGGLVQAGGSLRLSCAASGFIFPVYAMGWYRQAPGKDRELVAAISSGGITNYADSVKVRFTISRDNAKNTVYLQMNSLKPEDTAVYYCAARDYVRFGLYDYDYWGQGTQVTVSS | low polyreactivity
41 | QVQLVESGGGLVQAGGSLRLSCAASGLIFAGYAMGWYRQAPGKERELVAAITWRGGRTYADSVKGRFTISRDNAKNTVYLQMNSLKPEDTAVYYCAVRRWGTSFVEDDYWGQGTQVTVSS | low polyreactivity
42 | QVQLVESGGGLVQAGGSLRLSCAASGITFWSNAMGWYRQAPGKERELVAAITSSGGSAYYADSVKGRFTISRDNAKNTVYLQMNSLKPEDTAVYYCAAPISRSAGWDSYDYWGQGTQVTVSS | low polyreactivity
43 | QVQLVESGGGLVQAGGSLRLSCAASGRTFYPNTMGWYRQAPGKERELVAAIRSSGGSTYYADSVKGRFTISRDNAKKTVYLQMNSLKPEDTAVYYCAAKGRSSYFYWFDYWGQGTQVTVSS | high polyreactivity
